Experimental findings from patent US20210275644A1 (OCTAPHARMA, published 2021) are described below.

Test [1] deals with T1, Seq11 (recombinant vWF fragment AA 1-505 of SEQ ID NO: 1 with C-terminal Strep-Tag, from HEK 293) (human, UniProt P04275 764-1268, four O-glycosylation sites 485, 492, 493, 500 occupied (core 1, core 2 and/or extended core 1, sialylated)).
T1 construct: Expressed in HEK293 / MEXi-293 cells, purified on Strep-Tactin; not shown: C-terminal Twin-Strep-tag of the pDSG vector (IBA)
The test can be described thus: SIGLEC ELISA with Scatchard analysis (GraphPad Prism); no unit beside the number, concentration axis in µM [panel SIGLEC 9]. On the technique in general: An ELISA detects its analyte on a solid surface through an enzyme-linked reagent.

The target of test [2] is T1, Seq11 (recombinant vWF fragment AA …). The test can be described thus: SIGLEC ELISA, Scatchard analysis of the binding curve (apparent KD).
Test [3] deals with T2, vWF C-terminal fragment (V8 protease digest of plasma derived vWF) (human, UniProt P04275 2129-2813, biotinylated with EZ-Link Sulfo-NHS-Biotin).
T2 construct: the real molecule is only its C-terminal part; also called C-terminal vWF fragment
In words: ELISA: SIGLEC-Fc captured on a protein A plate (500 ng/well), biotinylated vWF fragment at 1 µg/mL, streptavidin-HRP, A492, single concentration.

Test [4] concerns the target T1, Seq11 (recombinant vWF fragment AA …). The test can be described thus: SIGLEC ELISA with Scatchard analysis (GraphPad Prism); no unit beside the number, concentration axis in µM [panel SIGLEC 5].
Test [5] concerns the target T3, Recombinant SIG-10 Fc-fusion protein (R&D Systems) (human, UniProt Q96LC7 17-546, limits assumed).
T3 construct: Bought from R&D Systems; Held on the plate by protein A; not shown: Fc part of the bought fusion protein
T3 sequence (looked up): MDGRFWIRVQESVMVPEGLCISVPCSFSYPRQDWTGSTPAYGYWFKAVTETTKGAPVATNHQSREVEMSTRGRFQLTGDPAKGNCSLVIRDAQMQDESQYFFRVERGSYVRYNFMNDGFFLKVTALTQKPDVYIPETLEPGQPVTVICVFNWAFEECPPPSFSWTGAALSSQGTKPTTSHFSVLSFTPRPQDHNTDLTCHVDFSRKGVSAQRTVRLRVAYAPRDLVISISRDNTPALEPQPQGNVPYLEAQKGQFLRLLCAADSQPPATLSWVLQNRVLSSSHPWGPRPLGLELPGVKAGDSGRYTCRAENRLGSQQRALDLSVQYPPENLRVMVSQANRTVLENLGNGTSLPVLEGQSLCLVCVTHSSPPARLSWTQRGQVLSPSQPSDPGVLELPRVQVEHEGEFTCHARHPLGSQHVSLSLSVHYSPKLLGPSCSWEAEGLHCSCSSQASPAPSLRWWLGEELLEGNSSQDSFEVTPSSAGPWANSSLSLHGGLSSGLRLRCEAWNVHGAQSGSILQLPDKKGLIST
In words: ELISA: SIGLEC-Fc captured on a protein A plate (500 ng/well), biotinylated cluster fragment at 4 µg/mL, streptavidin-HRP, A492, single concentration.

Test [6] has as its target T1, Seq11 (recombinant vWF fragment AA …). The test can be described thus: SIGLEC ELISA with Scatchard analysis (GraphPad Prism); no unit beside the number, concentration axis in µM [panel SIGLEC 7].

Where no end group is shown, it is not given here.

T2 sequence (P04275 2129-2813 limits assumed): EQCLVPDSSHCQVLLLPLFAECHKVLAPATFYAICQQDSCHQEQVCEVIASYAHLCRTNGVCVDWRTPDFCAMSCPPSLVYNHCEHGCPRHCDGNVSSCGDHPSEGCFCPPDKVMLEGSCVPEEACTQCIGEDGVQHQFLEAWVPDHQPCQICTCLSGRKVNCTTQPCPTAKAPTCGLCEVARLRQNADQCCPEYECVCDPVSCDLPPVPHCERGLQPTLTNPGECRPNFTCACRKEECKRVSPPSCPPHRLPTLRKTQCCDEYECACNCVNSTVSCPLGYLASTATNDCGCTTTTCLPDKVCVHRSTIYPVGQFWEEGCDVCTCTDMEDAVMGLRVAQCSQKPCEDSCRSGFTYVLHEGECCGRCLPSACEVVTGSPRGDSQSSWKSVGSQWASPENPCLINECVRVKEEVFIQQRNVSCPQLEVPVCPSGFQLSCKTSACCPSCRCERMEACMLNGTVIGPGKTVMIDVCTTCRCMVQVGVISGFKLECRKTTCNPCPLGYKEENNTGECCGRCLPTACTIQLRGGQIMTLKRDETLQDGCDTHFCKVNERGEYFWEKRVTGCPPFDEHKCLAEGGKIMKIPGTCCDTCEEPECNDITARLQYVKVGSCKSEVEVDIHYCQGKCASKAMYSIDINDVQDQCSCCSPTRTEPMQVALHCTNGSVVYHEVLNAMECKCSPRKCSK
T1 sequence (P04275 764-1268): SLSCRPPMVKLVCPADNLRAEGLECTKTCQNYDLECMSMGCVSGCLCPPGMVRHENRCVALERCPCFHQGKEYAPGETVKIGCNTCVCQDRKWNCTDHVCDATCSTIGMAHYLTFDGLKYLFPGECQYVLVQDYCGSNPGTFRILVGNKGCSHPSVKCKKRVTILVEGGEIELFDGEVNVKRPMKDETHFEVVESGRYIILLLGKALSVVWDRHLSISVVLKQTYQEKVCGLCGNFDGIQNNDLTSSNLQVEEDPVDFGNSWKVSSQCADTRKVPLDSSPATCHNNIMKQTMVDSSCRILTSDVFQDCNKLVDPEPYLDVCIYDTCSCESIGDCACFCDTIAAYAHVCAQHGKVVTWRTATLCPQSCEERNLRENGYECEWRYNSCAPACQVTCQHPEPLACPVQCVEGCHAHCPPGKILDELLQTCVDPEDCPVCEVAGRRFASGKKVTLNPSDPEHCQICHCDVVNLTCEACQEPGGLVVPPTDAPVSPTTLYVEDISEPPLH

B1: Recombinant SIG-9 Fc-fusion protein (R&D Systems) (Fc fusion)
chain: QTSKLLTMQSSVTVQEGLCVHVPCSFSYPSHGWIYPGPVVHGYWFREGANTDQDAPVATNNPARAVWEETRDRFHLLGDPHTKNCTLSIRDARRSDAGRYFFRMEKGSIKWNYKHHRLSVNVTALTHRPNILIPGTLESGCPQNLTCSVPWACEQGTPPMISWIGTSVSPLDPSTTRSSVLTLIPQPQDHGTSLTCQVTFPGASVTTNKTVHLNVSYPPQNLTMTVFQGDGTVSTVLGNGSSLSLPEGQSLRLVCAVDAVDSNPPARLSLSWRGLTLCPSQPSNPGVLELPWVHLRDAAEFTCRAQNPLGSQQVYLNVSLQSKATSGVTQG
notes: Bought from R&D Systems; Held on the plate by protein A; also called SIGLEC 9; not shown: Fc part of the bought fusion protein
Take B1: the Kd in test [1] and in test [2] was 591 nM in each case. The binding result in test [3] was “no binding (tested: 1 µg/mL)”.

B2: Recombinant SIG-5 Fc-fusion protein (R&D Systems) (Fc fusion)
chain: EKPVYELQVQKSVTVQEGLCVLVPCSFSYPWRSWYSSPPLYVYWFRDGEIPYYAEVVATNNPDRRVKPETQGRFRLLGDVQKKNCSLSIGDARMEDTGSYFFRVERGRDVKYSYQQNKLNLEVTALIEKPDIHFLEPLESGRPTRLSCSLPGSCEAGPPLTFSWTGNALSPLDPETTRSSELTLTPRPEDHGTNLTCQMKRQGAQVTTERTVQLNVSYAPQTITIFRNGIALEILQNTSYLPVLEGQALRLLCDAPSNPPAHLSWFQGSPALNATPISNTGILELRRVRSAEEGGFTCRAQHPLGFLQIFLNLSVYSLPQLLGPSCSWEAEGLHCRCSFRARPAPSLCWRLEEKPLEGNSSQGSFKVNSSSAGPWANSSLILHGGLSSDLKVSCKAWNIYGSQSGSVLLLQGRSNLGT
notes: Bought from R&D Systems; Held on the plate by protein A; also called SIGLEC 5; not shown: Fc part of the bought fusion protein
On to B2, for which the Kd in test [4] and in test [2] was 494 nM in each case. In addition, the binding result in test [3] is “no binding (tested: 1 µg/mL)”.

B3: Cluster 2 fragment (tryptic glycopeptide of plasma derived vWF, AA 674 to 728/729) (peptide)
peptide: AFVLSSVDELEQQRDEIVSYLC(Maleimide‑PEG2‑Biotin)DLAPEAPPPTLPPDMAQVTVGPGLLGVSTLGPKR
modifications: also: natural O-glycans (sialylated core 2), sites not given here
notes: also called Cluster II; O-glycosylation Cluster II
With B3, the binding result in test [5] is on record as “no binding (tested: 4 µg/mL)”.

B4: Recombinant SIG-7 Fc-fusion protein (R&D Systems) (Fc fusion)
chain: QKSNRKDYSLTMQSSVTVQEGMCVHVRCSFSYPVDSQTDSDPVHGYWFRAGNDISWKAPVATNNPAWAVQEETRDRFHLLGDPQTKNCTLSIRDARMSDAGRYFFRMEKGNIKWNYKYDQLSVNVTALTHRPNILIPGTLESGCFQNLTCSVPWACEQGTPPMISWMGTSVSPLHPSTTRSSVLTLIPQPQHHGTSLTCQVTLPGAGVTTNRTIQLNVSYPPQNLTVTVFQGEGTASTALGNSSSLSVLEGQSLRLVCAVDSNPPARLSWTWRSLTLYPSQPSNPLVLELQVHLGDEGEFTCRAQNSLGSQHVSLNLSLQQEYTGKMRPVSGVLLGAVG
notes: Bought from R&D Systems; Held on the plate by protein A; also called SIGLEC 7; not shown: Fc part of the bought fusion protein
For the molecule B4, the Kd in test [2] and in test [6] was 371 nM in each case. For the same molecule, in test [3], the binding result is “no binding (tested: 1 µg/mL)”.
